Results as given in patent publication US6191256A, “Recombinant factor VIII binding peptides” (Bayer Corporation, priority 1998, dated 2001).
Each block holds one substance with its values, some of them ahead of it.

Columns and labels:
rFVIII [1] = molecular target: T1, rFVIII (Homo sapiens, UniProt P00451); assay: column format binding assay, rFVIII mass per fraction by sandwich capture ELISA for the light chain; conditions: for Flow through ng: 10,000 ng rFVIII in 1:10 PPF injected, 5° C.; for ELISA results % total: Table 9, 0.5M CaCl2 fraction
Protocol: (§1) Immunoassay on rFVIII using a sandwich capture ELISA for the light chain and activity assay using a chromogenic substrate (COATEST Factor VIII kit from diaPharma, Franklin, Ohio) were performed on a BIOMEK® automated liquid handling system from Beckman Instruments (Brea, Calif.). The monoclonal antibody for rFVIII light chain (known as C7F7), the ELISA assay standard (lot A70K019), and the control for the activity assay (lot A70A001 @ 140 IU/mL) were from the Bayer Corporation (Berkeley, Calif.). The standard for the activity assay was at 11.2 IU/mL (Bayer, Clayton, N.C.), calibrated against the MEGA 1 standard, which is a working standard used by American manufacturers for measuring factor VIII activity (21).
(§2) Additional confirmatory binding assay and performance of the discovered binding peptides in terms of total rFVIII and activity recovery was performed in a column chromatographic format on a microbore HPLC. The resins were packed into 0.4×5 cm columns (Thomson, Springfield, Va.) and tested on the MICHROM HPLC system (Michrom BioResources, Auburn, Calif.). The elution program for the trials utilized the following method. The column was pre-equilibrated with equilibration buffer (as above). A 1 mL aliquot of 1:10 PPF followed by 1 mL of rFVIII (10,000 ng) in 1:10 PPF were injected and allowed sufficient time to flow through the column using equilibration buffer. The column was then washed with step elutions of 0.5 M and 1.0 M CaCl2 in equilibration buffer. The column was exposed to equilibration buffer. Remaining protein was eluted with 2% by volume glacial acetic acid in water. Columns were kept at 5° C. during the chromatographic runs. For each 1 mL injection (equilibration buffer, 1:10 PPF and 10,000 ng rFVIII in 1:10 PPF), the chromatographic cycle was run for 45 minutes (injection, flow through, 0.5 M CaCl2, 1.0 M CaCl2, equilibration buffer, 2% acetic acid, equilibration buffer).
(§3) A Gilson FC204 fraction collector at the HPLC outlet collected individual eluates for further analysis. Each collection tube had 100 μL hSA added to it to stabilize the rFVIII. Fractions collected from the 2% acetic acid eluates were neutralized with 2 M Tris, pH 10.5 to bring the pH to neutrality. The fractions were analyzed for total protein by the integration of the absorbance at 280 nm, for rFVIII by immunoassay (sandwich capture ELISA), and for rFVIII activity by a chromogenic substrate assay.
Tables 5 and 6 present the results from the additional confirmatory binding assays using the column format. The chromatography method was run by injecting the samples at a flow rate of 865 μL/min (413 cm/hr). In order to provide a 10 minute residence time of sample in the column the flow was decreased to 17 μL/min (10 cm/hr) upon injection.
Following the incubation, the flow was set at 865 μL/min (413 cm/hr) for the step clutions of 0.5 M CaCl2, 1.0 M CaCl2, and 2% acetic acid. Results are expressed in terms of the total mass of rFVIII in each fraction, as determined by the sandwich capture ELISA assay for the rFVIII light chain. […] A control using a non-binding peptide sequence (IGF) is also shown for comparison--in this case, 95% of the rFVIII loaded to the column was collected in the flow through fraction. Additional controls with no

rFVIII [2] = molecular target: T1, rFVIII; assay: rFVIII activity recovery from peptide columns by chromogenic substrate assay (COATEST); format: biochemical; conditions: for 0.5M CaCl2 % total: activity recovery; for Flow through IU: rFVIII activity in fraction; for Activity results % total: Table 9, 0.5M CaCl2 fraction
Protocol: as §1, §2, §3
Tables 7 and 8 list the sequences for which activity recovery was determined by a chromogenic substrate assay (COASTEST kit, diaPharma, Franklin, Ohio). Chromatographc conditions are the same as described above for the results from Tables 5 and 6. It can be

rFVIII [3] = molecular target: T1, rFVIII; assay: confirmatory binding assay in filtration plate format using 14C-rFVIII; conditions: for 0.5M CaCl2 % total / 2% acetic acid % total / 2% acetic acid dpm / 0.5M CaCl2 dpm: 5 mg beads; for 0.5M CaCl2 dpm: 5° C.; for beads % total / beads dpm: remaining on beads after washes
Protocol: Confirmatory binding assays were performed in a filtration plate format using individual peptide sequences synthesized directly onto the TOYOPEARL AF amino 650 M resin, at a final substitution density of 0.1 mmole/g resin. A slurry of each individual peptide sequence was prepared using deionized water. A 100 μL volume of beads (corresponding to 5 mg) was loaded into each well of the filtration plate (MULTISCREEN Assay System, Millipore, Bedford, Mass.), in triplicate for each peptide sequence. Beads were washed with 20% ethanol and incubated overnight with equilibration buffer (20 mM imidazole, 10 mM
CaCl2, 0.105 M NaCl, pH 6.9). A 100 μL aliquot of ^14 C-rFVIII diluted in neat PPF to a final concentration of 20-30 nM was loaded into each well and incubated for 1 hour at 5° C. Filtrate (unbound ^14 C-rFVIII) was collected into a microtiter plate and transferred to liquid scintillation vials for dpm counting. Beads were washed sequentially with: 100 μL of equilibration buffer for 15 minutes, 200 μL of 0.5 M CaCl2 (in equilibration buffer), 200 μL of 1.0 M CaCl2 (in equilibration buffer), and 200 uL of 2% by volume glacial acetic acid in water, for 1 hour each at 5° C. Scintillation counting on the unbound ^14 C-rFVIII (plus equilibration buffer wash), salt and acid washes, as well as on the beads was then performed and the overall mass balance calculated.
Beads presenting the appropriate peptide sequence on the surface were placed in the filtration plate wells and incubated sequentially with equilibration buffer, ^14 C-rFVIII in PPF, equilibration buffer, 0.5 M CaCl2 wash, 1.0 M CaCl2 wash and 2% acetic acid wash. After each incubation, filtrate was collected in microtiter plates, and dpm counted on each
In Table 3, the ^14 C-rFVIII was loaded at 20 nM (in PPF) and the radiolabeling yield was at 3.0×10^15 dpm/mole. In Table 4, the ^14 C-rFVIII was loaded at 30 nM (in PPF) and the radiolabeling yield was at 5.0×10^15 dpm/mole.

[4] = Table 3, 14C-rFVIII 20 nM in PPF
[5] = Table 4, 14C-rFVIII 30 nM in PPF

T1 sequence (P00451 20-2351): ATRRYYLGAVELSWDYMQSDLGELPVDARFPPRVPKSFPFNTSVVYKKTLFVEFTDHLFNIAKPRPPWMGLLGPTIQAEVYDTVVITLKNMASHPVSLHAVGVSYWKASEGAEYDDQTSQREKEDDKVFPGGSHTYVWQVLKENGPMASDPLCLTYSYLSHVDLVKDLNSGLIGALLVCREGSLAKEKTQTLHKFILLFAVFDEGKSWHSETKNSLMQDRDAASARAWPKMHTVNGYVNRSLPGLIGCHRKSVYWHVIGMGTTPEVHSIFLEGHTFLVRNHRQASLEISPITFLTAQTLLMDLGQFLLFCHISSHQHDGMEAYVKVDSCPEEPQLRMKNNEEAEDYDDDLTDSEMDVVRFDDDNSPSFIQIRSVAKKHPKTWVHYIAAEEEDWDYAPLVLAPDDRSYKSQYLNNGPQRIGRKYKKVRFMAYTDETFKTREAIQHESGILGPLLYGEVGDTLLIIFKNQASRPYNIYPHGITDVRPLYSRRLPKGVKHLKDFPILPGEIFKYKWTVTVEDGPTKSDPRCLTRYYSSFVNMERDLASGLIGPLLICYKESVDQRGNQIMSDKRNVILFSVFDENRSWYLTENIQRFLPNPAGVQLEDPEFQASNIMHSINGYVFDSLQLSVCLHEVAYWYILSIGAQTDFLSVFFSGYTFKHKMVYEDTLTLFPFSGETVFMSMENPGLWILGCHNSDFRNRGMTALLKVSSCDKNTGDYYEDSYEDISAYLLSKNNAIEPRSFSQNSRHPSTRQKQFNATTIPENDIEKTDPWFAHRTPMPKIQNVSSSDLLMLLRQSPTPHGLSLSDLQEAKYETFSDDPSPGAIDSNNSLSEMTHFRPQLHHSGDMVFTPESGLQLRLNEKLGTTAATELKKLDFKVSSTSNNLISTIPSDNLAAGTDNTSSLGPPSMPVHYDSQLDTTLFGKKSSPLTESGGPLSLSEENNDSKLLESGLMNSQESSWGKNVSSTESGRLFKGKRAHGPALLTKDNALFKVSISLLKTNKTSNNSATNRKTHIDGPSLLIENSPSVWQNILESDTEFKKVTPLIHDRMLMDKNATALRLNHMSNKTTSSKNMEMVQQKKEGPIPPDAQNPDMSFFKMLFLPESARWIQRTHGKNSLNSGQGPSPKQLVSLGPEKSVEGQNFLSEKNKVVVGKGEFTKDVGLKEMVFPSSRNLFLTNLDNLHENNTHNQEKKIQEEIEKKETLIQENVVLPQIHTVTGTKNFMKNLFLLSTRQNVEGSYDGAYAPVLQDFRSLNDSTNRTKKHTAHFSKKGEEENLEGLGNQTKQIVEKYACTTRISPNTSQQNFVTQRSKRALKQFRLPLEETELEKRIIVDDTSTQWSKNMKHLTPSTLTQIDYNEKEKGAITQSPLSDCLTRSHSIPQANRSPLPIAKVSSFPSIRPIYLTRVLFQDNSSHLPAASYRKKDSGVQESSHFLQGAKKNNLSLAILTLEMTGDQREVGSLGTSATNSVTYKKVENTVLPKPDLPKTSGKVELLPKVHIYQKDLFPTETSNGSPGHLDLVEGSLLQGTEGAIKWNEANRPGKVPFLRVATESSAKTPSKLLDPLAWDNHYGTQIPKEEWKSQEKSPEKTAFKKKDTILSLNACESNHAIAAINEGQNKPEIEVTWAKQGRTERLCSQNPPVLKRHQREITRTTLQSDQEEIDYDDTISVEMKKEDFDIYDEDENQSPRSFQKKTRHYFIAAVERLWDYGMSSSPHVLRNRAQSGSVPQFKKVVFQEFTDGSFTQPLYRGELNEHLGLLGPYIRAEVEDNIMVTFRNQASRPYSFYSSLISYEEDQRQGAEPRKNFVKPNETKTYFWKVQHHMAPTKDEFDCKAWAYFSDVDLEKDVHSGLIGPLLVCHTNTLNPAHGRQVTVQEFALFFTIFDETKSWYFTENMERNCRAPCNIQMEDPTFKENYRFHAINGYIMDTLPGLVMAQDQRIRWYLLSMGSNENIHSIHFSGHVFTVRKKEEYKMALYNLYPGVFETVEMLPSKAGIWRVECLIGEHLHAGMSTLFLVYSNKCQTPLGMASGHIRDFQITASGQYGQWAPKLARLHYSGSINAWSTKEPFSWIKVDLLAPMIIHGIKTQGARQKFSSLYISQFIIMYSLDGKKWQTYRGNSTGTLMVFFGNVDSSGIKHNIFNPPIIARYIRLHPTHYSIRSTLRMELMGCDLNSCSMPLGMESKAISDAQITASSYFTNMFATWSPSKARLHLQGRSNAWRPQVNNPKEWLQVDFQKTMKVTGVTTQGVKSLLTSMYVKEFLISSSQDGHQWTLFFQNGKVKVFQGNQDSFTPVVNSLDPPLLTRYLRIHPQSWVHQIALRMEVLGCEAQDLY
T1 sequence (P00451 1668-2351 limits assumed): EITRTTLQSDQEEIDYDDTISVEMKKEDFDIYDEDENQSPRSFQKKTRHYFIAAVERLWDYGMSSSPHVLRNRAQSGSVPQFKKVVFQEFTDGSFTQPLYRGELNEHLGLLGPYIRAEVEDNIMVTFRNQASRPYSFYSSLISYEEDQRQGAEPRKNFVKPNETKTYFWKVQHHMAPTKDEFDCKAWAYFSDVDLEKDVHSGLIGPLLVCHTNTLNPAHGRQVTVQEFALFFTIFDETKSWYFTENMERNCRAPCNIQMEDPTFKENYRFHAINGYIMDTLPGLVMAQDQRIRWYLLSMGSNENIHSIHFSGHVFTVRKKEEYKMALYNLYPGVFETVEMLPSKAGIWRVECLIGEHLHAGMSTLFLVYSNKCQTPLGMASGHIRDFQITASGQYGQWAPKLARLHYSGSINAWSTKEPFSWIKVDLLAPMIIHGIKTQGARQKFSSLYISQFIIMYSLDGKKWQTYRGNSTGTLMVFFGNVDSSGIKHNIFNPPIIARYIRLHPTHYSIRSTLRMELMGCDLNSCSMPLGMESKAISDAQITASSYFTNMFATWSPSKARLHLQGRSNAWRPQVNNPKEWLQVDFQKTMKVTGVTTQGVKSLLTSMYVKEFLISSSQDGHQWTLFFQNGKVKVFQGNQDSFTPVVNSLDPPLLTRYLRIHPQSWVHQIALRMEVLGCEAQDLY

0.5M CaCl2 ng (rFVIII [1]; Table 5): 5658 ng | 0.5M CaCl2 % total (rFVIII [1]; Table 5): 90% | 2% acetic acid % total (rFVIII [1]; Table 5): 3% | 2% acetic acid ng (rFVIII [1]; Table 5): 160 ng | Flow through % total (rFVIII [1]; Table 5): 2% | Total ng (rFVIII [1]; Table 5): 6320 ng | Flow through ng (rFVIII [1]; Table 5): 105 ng | ELISA results % total (rFVIII [1]): 90% | 0.5M CaCl2 IU (rFVIII [2]; Table 7): 59.4 IU | 2% acetic acid % total (rFVIII [2]; Table 7): 1% | 2% acetic acid IU (rFVIII [2]; Table 7): 0.5 IU | Flow through % total (rFVIII [2]; Table 7): 0% | Total IU (rFVIII [2]; Table 7): 68.7 IU | 0.5M CaCl2 % total (rFVIII [2]; Table 7): 86% | Flow through IU (rFVIII [2]; Table 7): 0.0 IU | Activity results % total (rFVIII [2]): 86% | Total dpm (rFVIII [3]; Table 3, 14C-rFVIII 20 nM): 3881 dpm | 0.5M CaCl2 % total (rFVIII [3]; [4]): 83% | 2% acetic acid % total (rFVIII [3]; [4]): 12% | 2% acetic acid dpm (rFVIII [3]; [4]): 458 dpm | 0.5M CaCl2 dpm (rFVIII [3]; Table 3, 14C-rFVIII 20 nM in PPF, 3.0 × 10^15 DPM/mole): 3236 dpm | beads % total (rFVIII [3]; Table 3, 14C-rFVIII 20 nM): 5% | beads dpm (rFVIII [3]; Table 3, 14C-rFVIII 20 nM): 187 dpm
Substance: 6 (HYWFYK) [compound 6]

0.5M CaCl2 ng (rFVIII [1]; Table 6): 11023 ng | 0.5M CaCl2 % total (rFVIII [1]; Table 6): 98% | 2% acetic acid % total (rFVIII [1]; Table 6): 1% | 2% acetic acid ng (rFVIII [1]; Table 6): 135 ng | Flow through % total (rFVIII [1]; Table 6): 0% | Total ng (rFVIII [1]; Table 6): 11272 ng | Flow through ng (rFVIII [1]; Table 6): 0 ng | ELISA results % total (rFVIII [1]): 98% | 0.5M CaCl2 IU (rFVIII [2]; Table 8): 53.1 IU | 2% acetic acid % total (rFVIII [2]; Table 8): 0% | 2% acetic acid IU (rFVIII [2]; Table 8): 0.1 IU | Flow through % total (rFVIII [2]; Table 8): 0% | Total IU (rFVIII [2]; Table 8): 54.3 IU | 0.5M CaCl2 % total (rFVIII [2]; Table 8): 98% | Flow through IU (rFVIII [2]; Table 8): 0.0 IU | Activity results % total (rFVIII [2]): 98% | Total dpm (rFVIII [3]; Table 4, 14C-rFVIII 30 nM): 3764 dpm | 0.5M CaCl2 % total (rFVIII [3]; [5]): 93% | 2% acetic acid % total (rFVIII [3]; [5]): 5% | 2% acetic acid dpm (rFVIII [3]; [5]): 188 dpm | 0.5M CaCl2 dpm (rFVIII [3]; Table 4, 14C-rFVIII 30 nM in PPF, 5.0 × 10^15 dpm/mole): 3491 dpm | beads % total (rFVIII [3]; Table 4, 14C-rFVIII 30 nM): 2% | beads dpm (rFVIII [3]; Table 4, 14C-rFVIII 30 nM): 85 dpm
Substance: 10 (AFVRSL) [compound 10]
